Values belong to the binder of their own block, whether it stands above or below them.
How the values were obtained:
[1] = biological target: T1, N-terminally polyhistidine tagged human MARCO ECD (147-520), recombinant (human, UniProt Q9UEW3 147-520); experiment: Biacore; sample oxidized with 0.5% H2O2 (24 hr, RT)
T1 construct: also called PI-RG-3000; recombinant human MARCO; not shown: N-terminal polyhistidine tag
T1 sequence: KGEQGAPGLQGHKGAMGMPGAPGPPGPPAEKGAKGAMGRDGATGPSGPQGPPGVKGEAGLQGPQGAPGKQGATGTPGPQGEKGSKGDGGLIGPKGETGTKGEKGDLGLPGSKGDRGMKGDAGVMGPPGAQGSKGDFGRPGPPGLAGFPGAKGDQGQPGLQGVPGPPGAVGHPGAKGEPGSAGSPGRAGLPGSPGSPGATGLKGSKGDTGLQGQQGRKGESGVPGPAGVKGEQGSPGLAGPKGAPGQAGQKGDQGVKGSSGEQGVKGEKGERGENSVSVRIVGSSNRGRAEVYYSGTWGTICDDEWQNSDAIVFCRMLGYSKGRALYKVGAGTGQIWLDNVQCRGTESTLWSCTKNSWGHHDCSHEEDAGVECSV
Description: (§1) (PBS)+1 mM AAPH for 6 h, 0.5 and 1.5% H₂O₂ in PBS for 24 h, which was compared to a previous experiment at 40° C. (PBS)+1 mM AAPH for 6 h. Post treatment the samples were analyzed by LC-MS/MS which identified the % modification on isolated peptides derived from the antibody after trypsin digest.
(§2) Binding of the stressed samples to recombinant human MARCO was assessed by Biacore.

[2] = biological target: T1, N-terminally polyhistidine tagged human …; experiment: Biacore; sample oxidized with 1.5% H2O2 (24 hr, RT)
Description: as §1, §2

[3] = biological target: T1, N-terminally polyhistidine tagged human …; experiment: Biacore (SPR), binding affinity to human MARCO
In short: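 On a CM4 chip, anti-mouse Fc mAb was amine-coupled to a 4500 RU target and used to capture the antibodies. Their binding kinetics and affinity for N-terminally His-tagged human MARCO extracellular domain (147-520) were then measured by multi-cycle surface plasmon resonance on a Biacore T200. This was done at 25° C in 10 mM HEPES pH 7.4, 150 mM NaCl, 3 mM EDTA, 0.05% surfactant P20, with 0.625–10 nM injections, 90 s association and 600 s dissociation, and fitting in BIAevaluation 3.1.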

[4] = biological target: T2, recombinant cynomolgus MARCO protein (cynomolgus, UniProt A0A2K5X0Z2 65-519); experiment: SPR, multi cycle kinetics, cyno MARCO
T2 construct: Construct not described; also called cyno MARCO; cynoMARCO
T2 sequence: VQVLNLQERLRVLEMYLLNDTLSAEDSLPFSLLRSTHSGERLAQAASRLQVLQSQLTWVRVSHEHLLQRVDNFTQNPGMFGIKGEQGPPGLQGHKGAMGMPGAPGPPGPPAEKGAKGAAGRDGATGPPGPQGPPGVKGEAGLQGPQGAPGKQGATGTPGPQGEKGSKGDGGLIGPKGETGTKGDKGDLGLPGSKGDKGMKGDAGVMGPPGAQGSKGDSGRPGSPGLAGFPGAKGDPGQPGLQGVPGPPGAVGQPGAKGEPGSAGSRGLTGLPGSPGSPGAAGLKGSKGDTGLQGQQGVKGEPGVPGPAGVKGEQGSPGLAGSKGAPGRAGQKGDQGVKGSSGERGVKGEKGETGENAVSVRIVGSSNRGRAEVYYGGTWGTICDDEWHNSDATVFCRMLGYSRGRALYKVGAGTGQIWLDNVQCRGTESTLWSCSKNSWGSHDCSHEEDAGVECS

[5] = biological target: T3, Mouse MARCO, full length, on cells (mouse, UniProt Q60754 1-518); experiment: competition with AF488 E. coli binding to muMARCO 293T cells, flow cytometry
T3 construct: whole, on cells; the cell type is named under assay; also called muMARCO; MuMARCO
T3 sequence (looked up): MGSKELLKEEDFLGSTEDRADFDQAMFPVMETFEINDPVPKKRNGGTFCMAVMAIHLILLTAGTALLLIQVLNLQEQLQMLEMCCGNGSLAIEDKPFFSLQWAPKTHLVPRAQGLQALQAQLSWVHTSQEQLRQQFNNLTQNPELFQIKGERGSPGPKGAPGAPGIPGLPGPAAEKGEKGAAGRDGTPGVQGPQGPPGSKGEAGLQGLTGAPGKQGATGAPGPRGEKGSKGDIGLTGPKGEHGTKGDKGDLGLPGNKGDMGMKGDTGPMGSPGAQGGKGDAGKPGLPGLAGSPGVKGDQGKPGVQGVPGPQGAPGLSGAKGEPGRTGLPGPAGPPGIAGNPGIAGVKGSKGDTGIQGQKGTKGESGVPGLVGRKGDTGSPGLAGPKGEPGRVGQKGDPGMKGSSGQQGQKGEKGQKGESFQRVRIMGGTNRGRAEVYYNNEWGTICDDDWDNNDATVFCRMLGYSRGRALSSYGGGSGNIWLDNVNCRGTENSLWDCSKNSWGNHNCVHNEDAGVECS

[6] = biological target: T2, recombinant cynomolgus MARCO protein; experiment: KD (nM) Cyno; method not given
[7] = biological target: T4, Cynomolgus MARCO, full length, on cells (cynomolgus, UniProt A0A2K5X0Z2 1-519); experiment: flow cytometry, cells overexpressing cyno MARCO
T4 construct: whole, on cells; also called cyno MARCO; CyMARCO
T4 sequence: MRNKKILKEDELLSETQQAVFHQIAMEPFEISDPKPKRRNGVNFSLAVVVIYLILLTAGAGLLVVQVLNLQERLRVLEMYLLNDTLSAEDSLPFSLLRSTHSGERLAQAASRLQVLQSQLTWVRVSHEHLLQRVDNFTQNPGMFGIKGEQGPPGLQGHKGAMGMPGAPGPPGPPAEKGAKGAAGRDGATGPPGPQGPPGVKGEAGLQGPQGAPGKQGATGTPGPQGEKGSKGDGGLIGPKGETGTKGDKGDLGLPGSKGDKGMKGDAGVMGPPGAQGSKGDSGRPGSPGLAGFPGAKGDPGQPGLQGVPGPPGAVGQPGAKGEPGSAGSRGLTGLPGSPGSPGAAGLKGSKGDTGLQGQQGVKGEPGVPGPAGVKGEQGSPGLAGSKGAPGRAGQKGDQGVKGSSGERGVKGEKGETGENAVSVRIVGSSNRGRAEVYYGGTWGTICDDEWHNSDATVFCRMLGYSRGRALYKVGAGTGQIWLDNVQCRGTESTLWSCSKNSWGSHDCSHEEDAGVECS

Kd [4]: 0.109 nM
B2: PI-HX-3031 (antibody)
heavy: QVQLKESGPGLVQPSQTLSLTCTVSGFSLTSYHVSWVRQPPGKGLEWMGAIWTGGSIAYNSLLKSRLSISRDTSKSQVFLKMNSLQTEDTATYYCARDLSDYYSSYTSFDYWGQGVMVTVSTAETTAPSVYPLAPGTALKSNSMVTLGCLVKGYFPEPVTVTWNSGALSSGVHTFPAVLQSGLYTLTSSVTVPSSTWSSQAVTCNVAHPASSTKVDKKIVPRECNPCGCTGSEVSSVFIFPPKTKDVLTITLTPKVTCVVVDISQNDPEVRFSWFIDDVEVHTAQTHAPEKQSNSTLRSVSELPIVHRDWLNGKTFKCKVNSGAFPAPIEKSISKPEGTPRGPQVYTMAPPKEEMTQSQVSITCMVKGFYPPDIYTEWKMNGQPQENYKNTPPTMDTDGSYFLYSKLNVKKETWQQGNTFTCSVLHEGLHNHHTEKSLSHSP
light: DIQMTQSPASLSTSLGETVSIECLASEGISNDLAWYQQKSGKSPQLLIYAASRLQDGVPSRFSGSGSGTRYSLKISGMQPEDEADYFCQQSYKYPLTFGSGTKLEIKRADAAPTVSIFPPSTEQLATGGASVVCLMNNFYPRDISVKWKIDGTERRDGVLDSVTDQDSKDSTYSMSSTLSLTKADYESHNLYTCEVVHKTSSSPVVKSFNRNEC
notes: Parental rat hybridoma, rat IgG2a

Kd [6]: 0.26 nM | EC50 [7]: 0.34 nM
B4: PI-3010-AB (antibody, human IgG1, kappa)
heavy: not shown
light: DIQMTQSPASLSTSLGETVSIECLASEGISNDLAWYQQKSGKSPQLLIYAASRLQDGVPSRFSGSGSGTRYSLKISGMQPEDEADYFCQQSYKYPLTFGSGTKLEIKRTVAAPSVFIFPPSDEQLKSGTASVVCLLNNFYPREAKVQWKVDNALQSGNSQESVTEQDSKDSTYSLSSTLTLSKADYEKHKVYACEVTHQGLSSPVTKSFNRGEC

Further lines, the binder ahead of its results:

B1: PI-3015-AB (antibody, human IgG1, kappa)
heavy: not shown
light: DIQMTQSPSSLSASVGDRVTITCRASEGISNDLAWYQQKPGKAPKLLIYAASRLQSGVPSRFSGSGSGTDYTLTISSMQPEDFATYYCQQSYKYPLTFGQGTKLEIKRTVAAPSVFIFPPSDEQLKSGTASVVCLLNNFYPREAKVQWKVDNALQSGNSQESVTEQDSKDSTYSLSSTLTLSKADYEKHKVYACEVTHQGLSSPVTKSFNRGEC
Kd [1]: 1.05 nM | Kd [2]: 1.07 nM | Kd [3]: 0.51 nM

B3: PI-HX-3061 (antibody, rat IgG2a)
heavy: EVQLVESGGGLVQPGSSLKLSCVASKFTFSNYGMNWIRQAPKKGLEWIALIYYNSNNKYYADSVKGRFTISRDNSKNTLYLEMNSLRSEDTAMYYCAKSLTGGSDYFDSWGQGVMVTVSSAETTAPSVYPLAPGTALKSNSMVTLGCLVKGYFPEPVTVTWNSGALSSGVHTFPAVLQSGLYTLTSSVTVPSSTWPSQTVTCNVAHPASSTKVDKKIVPRNCGGDCKPCICTGSEVSSVFIFPPKPKDVLTITLTPKVTCVVVDISQDDPEVHFSWFVDDVEVHTAQTRPPEEQFNSTFRSVSELPILHQDWLNGRTFRCKVTSAAFPSPIEKTISKPEGRTQVPHVYTMSPTKEEMTQNEVSITCMVKGFYPPDIYVEWQMNGQPQENYKNTPPTMDTDGSYFLYSKLNVKKEKWQQGNTFTCSVLHEGLHNHHTEKSLSHSP
light: DVQMTQSPSYLAASPGESVSISCKASKSIGTFLAWYQEKPEKTNKLLIYSGSTLQSGTPSRFSGSGSGTDFTLTIRNLEPEDFAVYYCQQHDEYPFTFGSGTKLEIKRADAAPTVSIFPPSTEQLATGGASVVCLMNNFYPRDISVKWKIDGTERRDGVLDSVTDQDSKDSTYSMSSTLSLTKADYESHNLYTCEVVHKTSSSPVVKSFNRNEC
notes: Parental rat hybridoma, rat IgG2a; cross reactive with human and mouse MARCO
EC50 [5]: 0.85 nM
